Data reported in US20070142277A1.

Molecular target: endogenously expressed APP isoforms in SH-SY5Y cells (human) (UniProt P05067)
Assay: cell-based or functional assay

Chain of endogenously expressed APP isoforms in SH-SY5Y cells (human) (P05067 18-770): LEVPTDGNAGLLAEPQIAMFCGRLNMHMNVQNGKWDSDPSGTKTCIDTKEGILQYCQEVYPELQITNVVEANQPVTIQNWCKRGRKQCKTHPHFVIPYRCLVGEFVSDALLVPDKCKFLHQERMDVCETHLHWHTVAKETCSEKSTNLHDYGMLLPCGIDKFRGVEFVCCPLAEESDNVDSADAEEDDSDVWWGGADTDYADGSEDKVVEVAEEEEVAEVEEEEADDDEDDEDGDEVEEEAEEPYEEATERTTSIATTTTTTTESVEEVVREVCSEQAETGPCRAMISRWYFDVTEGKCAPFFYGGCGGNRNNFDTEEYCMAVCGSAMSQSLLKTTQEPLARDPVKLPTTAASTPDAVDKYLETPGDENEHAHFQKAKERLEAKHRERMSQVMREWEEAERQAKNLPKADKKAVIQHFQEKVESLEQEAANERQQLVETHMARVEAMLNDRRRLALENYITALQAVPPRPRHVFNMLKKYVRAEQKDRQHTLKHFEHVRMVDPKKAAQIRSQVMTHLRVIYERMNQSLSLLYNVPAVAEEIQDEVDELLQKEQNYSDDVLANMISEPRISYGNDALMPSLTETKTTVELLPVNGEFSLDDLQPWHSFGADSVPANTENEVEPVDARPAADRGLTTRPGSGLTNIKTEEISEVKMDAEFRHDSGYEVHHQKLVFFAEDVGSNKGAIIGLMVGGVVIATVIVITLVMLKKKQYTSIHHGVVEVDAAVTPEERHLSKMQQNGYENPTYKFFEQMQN

Row | Substance | Aβ1-40 release, expressed as the percentage of control (cells transfected with the empty vector DNA) | Aβ release (% of control), Aβ1-40 ELISA of conditioned medium of transfected SH-SY5Y cells
1 | BACE455 (from UniProt P56817 46-501) (enzyme) | 200 % of control | 195 % of control
2 | BACE501 (from UniProt P56817 46-501) (enzyme) |  | 193 % of control
